This assay deals with Myeloperoxidase (Homo sapiens, UniProt P05164). Nature of the assay: SPR. (In general: SPR reads the build-up and loss of mass on a sensor chip optically.)
Chain of Myeloperoxidase (P05164 165-273): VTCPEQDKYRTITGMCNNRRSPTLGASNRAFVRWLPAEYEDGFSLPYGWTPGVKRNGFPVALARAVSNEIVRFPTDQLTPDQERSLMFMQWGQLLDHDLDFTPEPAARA

Broadly, the Kd is the constant that tells how readily two partners part at equilibrium. Higher therefore signals weaker binding. In turn, VPNHFNAP [VPNHFNAP peptide] displayed a Kd of 183 µM.

Values taken from PMC12583094 (2025).
